Laboratory results from WO2021226442A2 (dated 2021).

How the values were obtained:
[1] = molecular target: T1, human complement component C3 (human, UniProt P01024 23-667; P01024 672-1663); assay: cell-based or functional assay
[2] = molecular target: T1, human complement component C3; assay: SPR (Biacore), antibody captured, C3 injected, 37 C
[3] = molecular target: T2, cynomolgus monkey complement component C3 (cynomolgus monkey, UniProt P01024 24-1663 (human entry)); assay: as above
T2 construct: In the hemolysis assays cyno serum was the source of C3; also called cyno C3

[4] = molecular target: T1, human complement component C3; assay: SPR (Biacore), compared with Hz38G10
[5] = molecular target: T1, human complement component C3; assay: SPR (Biacore), antibody captured by anti-Fc on CM5 chip, C3 injected 0.62-40 nM, 37 C
[6] = molecular target: T2, cynomolgus monkey complement component …; assay: as above
[7] = molecular target: T1, human complement component C3; assay: SPR (Biacore)

T2 sequence (P01024 other isoform, or with tags, fused parts or gaps): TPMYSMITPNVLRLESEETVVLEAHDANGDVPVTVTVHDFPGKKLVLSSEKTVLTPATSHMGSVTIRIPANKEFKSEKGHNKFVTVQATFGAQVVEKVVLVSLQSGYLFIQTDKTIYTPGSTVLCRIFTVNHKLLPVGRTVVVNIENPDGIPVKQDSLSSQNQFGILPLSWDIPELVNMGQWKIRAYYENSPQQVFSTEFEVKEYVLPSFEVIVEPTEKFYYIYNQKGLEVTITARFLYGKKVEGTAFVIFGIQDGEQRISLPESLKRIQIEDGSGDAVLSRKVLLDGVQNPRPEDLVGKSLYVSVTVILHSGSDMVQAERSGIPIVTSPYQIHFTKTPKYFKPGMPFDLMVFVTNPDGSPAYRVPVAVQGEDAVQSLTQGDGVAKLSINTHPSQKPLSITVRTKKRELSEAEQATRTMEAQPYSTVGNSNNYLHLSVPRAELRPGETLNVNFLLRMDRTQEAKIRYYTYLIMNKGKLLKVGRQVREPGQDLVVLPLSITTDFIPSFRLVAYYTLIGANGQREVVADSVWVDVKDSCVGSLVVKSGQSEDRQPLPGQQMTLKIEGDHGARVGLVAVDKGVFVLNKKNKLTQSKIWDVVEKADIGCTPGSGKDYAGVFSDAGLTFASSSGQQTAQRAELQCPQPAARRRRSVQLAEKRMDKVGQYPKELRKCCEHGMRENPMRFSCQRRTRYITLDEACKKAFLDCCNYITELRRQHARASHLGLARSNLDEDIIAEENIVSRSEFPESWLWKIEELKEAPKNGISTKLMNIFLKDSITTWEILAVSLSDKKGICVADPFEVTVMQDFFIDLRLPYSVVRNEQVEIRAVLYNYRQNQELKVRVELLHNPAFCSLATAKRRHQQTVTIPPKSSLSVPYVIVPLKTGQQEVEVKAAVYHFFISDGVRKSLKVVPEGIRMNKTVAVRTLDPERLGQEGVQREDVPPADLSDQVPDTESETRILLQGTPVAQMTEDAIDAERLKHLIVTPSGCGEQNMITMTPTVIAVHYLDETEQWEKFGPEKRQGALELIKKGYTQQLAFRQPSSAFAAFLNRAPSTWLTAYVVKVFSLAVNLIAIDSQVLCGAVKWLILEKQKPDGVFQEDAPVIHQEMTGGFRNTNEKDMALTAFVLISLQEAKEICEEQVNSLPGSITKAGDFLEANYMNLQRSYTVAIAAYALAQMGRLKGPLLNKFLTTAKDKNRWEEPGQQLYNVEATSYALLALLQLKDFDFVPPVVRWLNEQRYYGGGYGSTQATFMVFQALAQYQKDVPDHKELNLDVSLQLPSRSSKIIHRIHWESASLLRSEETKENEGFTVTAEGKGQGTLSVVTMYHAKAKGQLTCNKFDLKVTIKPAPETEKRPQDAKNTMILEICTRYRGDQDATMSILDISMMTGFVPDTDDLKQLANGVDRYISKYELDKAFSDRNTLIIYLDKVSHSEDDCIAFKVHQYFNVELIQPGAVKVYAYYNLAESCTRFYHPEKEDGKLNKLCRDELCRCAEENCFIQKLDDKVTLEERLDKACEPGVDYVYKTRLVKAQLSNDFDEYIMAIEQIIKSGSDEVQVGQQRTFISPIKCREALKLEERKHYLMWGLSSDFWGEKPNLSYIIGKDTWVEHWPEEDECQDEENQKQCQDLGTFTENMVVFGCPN
T1 sequence (P01024 23-667, chain 1 of 2): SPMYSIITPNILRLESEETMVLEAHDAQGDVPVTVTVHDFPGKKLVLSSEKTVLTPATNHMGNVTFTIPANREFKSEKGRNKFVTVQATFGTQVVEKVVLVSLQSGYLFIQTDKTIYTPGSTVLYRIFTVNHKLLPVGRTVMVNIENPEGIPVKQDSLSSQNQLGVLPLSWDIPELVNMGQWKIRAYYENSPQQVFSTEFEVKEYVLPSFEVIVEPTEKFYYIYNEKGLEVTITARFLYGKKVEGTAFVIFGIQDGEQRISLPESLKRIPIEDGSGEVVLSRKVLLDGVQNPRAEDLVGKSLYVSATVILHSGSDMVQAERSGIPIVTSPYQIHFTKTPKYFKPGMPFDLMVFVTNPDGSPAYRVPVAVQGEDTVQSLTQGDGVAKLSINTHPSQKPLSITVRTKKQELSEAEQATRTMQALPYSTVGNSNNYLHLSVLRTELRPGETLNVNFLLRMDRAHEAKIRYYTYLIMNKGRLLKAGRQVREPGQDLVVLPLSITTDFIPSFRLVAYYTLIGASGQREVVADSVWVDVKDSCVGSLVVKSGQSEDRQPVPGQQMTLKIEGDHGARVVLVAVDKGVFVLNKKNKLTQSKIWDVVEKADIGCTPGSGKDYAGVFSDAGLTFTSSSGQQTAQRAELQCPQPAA
T1 sequence (P01024 672-1663, chain 2 of 2): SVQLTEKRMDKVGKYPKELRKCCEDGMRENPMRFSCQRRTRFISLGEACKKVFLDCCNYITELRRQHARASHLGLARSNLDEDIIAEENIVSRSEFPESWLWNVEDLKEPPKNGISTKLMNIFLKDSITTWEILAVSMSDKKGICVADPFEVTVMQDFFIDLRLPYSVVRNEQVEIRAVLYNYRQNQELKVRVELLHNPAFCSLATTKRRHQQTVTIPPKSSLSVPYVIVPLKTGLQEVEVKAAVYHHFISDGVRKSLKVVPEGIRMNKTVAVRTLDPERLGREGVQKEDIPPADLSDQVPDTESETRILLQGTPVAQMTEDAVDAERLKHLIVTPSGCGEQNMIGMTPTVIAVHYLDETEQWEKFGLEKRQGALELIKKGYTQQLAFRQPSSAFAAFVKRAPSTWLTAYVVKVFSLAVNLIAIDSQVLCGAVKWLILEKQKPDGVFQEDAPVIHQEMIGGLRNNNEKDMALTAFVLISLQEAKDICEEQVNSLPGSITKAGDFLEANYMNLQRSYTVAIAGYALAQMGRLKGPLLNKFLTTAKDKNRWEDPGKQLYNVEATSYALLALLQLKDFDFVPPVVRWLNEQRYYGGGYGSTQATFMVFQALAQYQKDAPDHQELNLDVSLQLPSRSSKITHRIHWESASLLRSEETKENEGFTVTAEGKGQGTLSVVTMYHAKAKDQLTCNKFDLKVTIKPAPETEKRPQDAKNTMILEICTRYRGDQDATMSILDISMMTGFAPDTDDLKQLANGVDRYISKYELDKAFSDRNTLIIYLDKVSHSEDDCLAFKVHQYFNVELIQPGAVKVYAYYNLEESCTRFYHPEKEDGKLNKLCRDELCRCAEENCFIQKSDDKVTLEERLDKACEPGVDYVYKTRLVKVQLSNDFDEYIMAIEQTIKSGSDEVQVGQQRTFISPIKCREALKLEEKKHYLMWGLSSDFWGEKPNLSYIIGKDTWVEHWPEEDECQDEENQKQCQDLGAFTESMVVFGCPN

B1: antibody Hz38G10 (antibody, human IgG1, kappa, V domains shown)
VH: QVQLVQSGAEVKKPGASVKVSCKASGYTFTDFYMDWVRQAPGQRLEWMGYIYPHNGGTTYNQQFTGRVTITVDKSASTAYMELSSLRSEDTAVYYCARRGGFDFDYWGQGTLVTVSS
VL: DIQMTQSPSSLSASVGDRVTITCKASENVDTYVSWYQQKPGKAPKLLIYGASNRYTGVPSRFSGSGSGTDFTFTISSLQPEDIATYHCGQSHSYPLTFGQGTKLEIKR
notes: also called humanized 38G10; Hz38G10 intact antibody
For B1, the “alternative pathway hemolysis assay, fold against COMP or COMP-PEG” value [1] was roughly 10 fold, the Kd [2] was 0.3 nM and the Kd [3] was 1.8 nM.

B2: antibody Hz38G10(G56A) (antibody, human IgG1, kappa, V domains shown)
VH: QVQLVQSGAEVKKPGASVKVSCKASGYTFTDFYMDWVRQAPGQRLEWMGYIYPHNAGTTYNQQFTGRVTITVDKSASTAYMELSSLRSEDTAVYYCARRGGFDFDYWGQGTLVTVSS
VL: DIQMTQSPSSLSASVGDRVTITCKASENVDTYVSWYQQKPGKAPKLLIYGASNRYTGVPSRFSGSGSGTDFTFTISSLQPEDIATYHCGQSHSYPLTFGQGTKLEIKR
B2: binds [4].

B3: antibody 38G10 (antibody, V domains shown)
VH: EVQLQQSGPELVKPGDSVKMSCKASGYTFTDFYMDWVKQSHGKSLEWIGYIYPHNGGTTYNQNFTGKATLTVDKSSNTAYMELHSLTSEDSAVYYCARRGGFDFDYWGQGTTLTVSS
VL: NIVMTQSPKSMSLSVGERVTLRCKASENVDTYVSWYQQKPEQSPKLLIYGASNRYTGVPDRFTGSGSATEFTLTISSVQAEDLVGYHCGQSHSYPLTFGAGTKLELK
notes: Mouse hybridoma monoclonal antibody; also called parental 38G10 antibody
For B3, the Kd [5] was 0.19 nM, the Kd [6] was 0.16 nM and the Kd [2] was roughly 0.1 nM. The Kd [3] was roughly 0.1 nM.

B4: variant of antibody Hz38G10 with a N55D mutation in the heavy chain CDR2 (antibody, V domains shown)
VH: QVQLVQSGAEVKKPGASVKVSCKASGYTFTDFYMDWVRQAPGQRLEWMGYIYPHDGGTTYNQQFTGRVTITVDKSASTAYMELSSLRSEDTAVYYCARRGGFDFDYWGQGTLVTVSS
VL: DIQMTQSPSSLSASVGDRVTITCKASENVDTYVSWYQQKPGKAPKLLIYGASNRYTGVPSRFSGSGSGTDFTFTISSLQPEDIATYHCGQSHSYPLTFGQGTKLEIK
notes: Mimics a fully deamidated molecule; also called Hz38G10 N55D variant
B4: binds [7].

B5: antibody Hz38G10(G56T) (antibody, V domains shown)
VH: QVQLVQSGAEVKKPGASVKVSCKASGYTFTDFYMDWVRQAPGQRLEWMGYIYPHNTGTTYNQQFTGRVTITVDKSASTAYMELSSLRSEDTAVYYCARRGGFDFDYWGQGTLVTVSS
VL: DIQMTQSPSSLSASVGDRVTITCKASENVDTYVSWYQQKPGKAPKLLIYGASNRYTGVPSRFSGSGSGTDFTFTISSLQPEDIATYHCGQSHSYPLTFGQGTKLEIK
B5: binds [4].

B6: antibody Hz38G10(N55E) (antibody, V domains shown)
VH: QVQLVQSGAEVKKPGASVKVSCKASGYTFTDFYMDWVRQAPGQRLEWMGYIYPHEGGTTYNQQFTGRVTITVDKSASTAYMELSSLRSEDTAVYYCARRGGFDFDYWGQGTLVTVSS
VL: DIQMTQSPSSLSASVGDRVTITCKASENVDTYVSWYQQKPGKAPKLLIYGASNRYTGVPSRFSGSGSGTDFTFTISSLQPEDIATYHCGQSHSYPLTFGQGTKLEIK
B6: binds [4].

B7: antibody Hz38G10(N55Q) (antibody, V domains shown)
VH: QVQLVQSGAEVKKPGASVKVSCKASGYTFTDFYMDWVRQAPGQRLEWMGYIYPHQGGTTYNQQFTGRVTITVDKSASTAYMELSSLRSEDTAVYYCARRGGFDFDYWGQGTLVTVSS
VL: DIQMTQSPSSLSASVGDRVTITCKASENVDTYVSWYQQKPGKAPKLLIYGASNRYTGVPSRFSGSGSGTDFTFTISSLQPEDIATYHCGQSHSYPLTFGQGTKLEIK
B7: binds [4].

B8: Hz38G10 dsscFv (VL-linker-VH disulfide-stabilized scFv) (scFv)
scFv: MDIQMTQSPSSLSASVGDRVTITCKASENVDTYVSWYQQKPGKAPKLLIYGASNRYTGVPSRFSGSGSGTDFTFTISSLQPEDIATYHCGQSHSYPLTFGCGTKLEIKGGGGSGGGGSGGGGSQVQLVQSGAEVKKPGASVKVSCKASGYTFTDFYMDWVRQAPGQCLEWMGYIYPHNGGTTYNQQFTGRVTITVDKSASTAYMELSSLRSEDTAVYYCARRGGFDFDYWGQGTLVTVSS
notes: scFv with an engineered disulfide bond between VL and VH; also called Hz38G10 VL-linker-VH dsscFv
B8: binds [7].
